Reference: US9175027B2, “Polymer-carbohydrate-lipid conjugates” (priority 2011, dated 2015)
Ends that are not written are not given here.

What was measured:
[1] = Stability of peptide solution by HPLC assay; type: physicochemical; settings: 24 hours
Protocol: Stability experiment was carried out by HPLC assay and a custom synthesized thermolabile peptide with the following sequence was used as the model compound: […] The peptide was added to selected media and sonicated for 10 minutes. The sample solutions were filtered through passed through 0.22-μm pore-size filter to remove dust particles before the HPLC assay. A Simadzu 10avp chromatography system with a Kinetex C18 (2.6 μm, 100×4.6 mm i.d.) column (Phenomenex, Torrance, Calif.) were used. The solutions were kept at 25° C. in the Autosampler during the assay and the mobile phase consisted of 0.1% of trifluoroacetic acid and acetonitrile mixture (v/v, 80/20) with a flow rate of 1.0 mL/min. The peptide peak was monitored at 210 nm and quantitated using external standard sets of the peptide.
The plots were the % recovery vs. time.

[2] = Physical state of Propofol formulation with PEG-carbohydrate-lipid (solution vs suspension/microemulsion); type: physicochemical
Protocol: A propofol solution suitable for intravenous delivery is prepared as follows. 5% (w/v) of OAPDL-PEG in Saline was added to a vessel equipped with a mixer propeller and 2% (w/v) of Propofol was added with constant mixing at ambient room temperature. Mixing was continued until the drug was visually dispersed. Equal volume of Saline was added to the vessel with adequate mixing. Mixing continued for another 30 minutes or until a homogenous solution was achieved. A sample formulation is described in Table 14.
In Example 16, less concentrated or less purified PEG-sugar-lipid will create a suspension instead of an aqueous solution. For instance, the final concentration of the PEG-carbohydrate-lipid is less than 1.5% (w/v), it will form a suspension. Similarly when the oligomer purity is 80% or less, regardless the concentration of the PEG-carbohydrate-lipid, an emulsified solution will be observed instead of a transparent solution.
Propofol as the active agent was formulated with various polymer-lipid-carbohydrate conjugates described in the present invention. At a lower of the polymer-lipid-carbohydrate conjugate concentration, i.e., OAPDL-11 (<1.5%), the formulation is a microemulsion and at a higher OAPDL-11 concentration (≧2.2%), it is a true solution.
A solution is defined as a homogenous mixture of substances with variable composition. […]

[3] = Body weight change as evidence of cisplatin renal toxicity; type: in vivo, mice (B6D2F1); settings: mice, compared with free sugars
Protocol: Groups of four each of mixed gender mice (B6D2F1), […] and weights of 22 to 30 grams) were studied in duplicate. Each mouse was administrated cisplatin intravenously at a dose of 10 mg/kg (Table 15) and Intraperitoneally at a dose of 15 mg/kg (Table 16). The changes in body weights observed can be used as a direct evident in the renal toxicity effects.

Substance	peptide degradation ([1]; in a 50 mM of phosphate buffer)	peptide still remaining ([1]; in a 2% of PEG-carbohydrate-lipid)	state of Propofol formulation ([2]; OAPDL-11 concentration <1.5%)	state of Propofol formulation ([2]; OAPDL-11 concentration ≧2.2%)	intravenous hydration effect for reducing renal toxicity of cisplatin [3]
FPKLSHGCNKHSRKHPYMTF [peptide, custom synthesized thermolabile peptide used as the model compound]	degraded significantly	more than 97%	–	–	–
oleoyl-N-(3-aminopropyl)propane-1,3-diamine-Undecaethylene glycol methyl ether Lactobionate [OAPDL-11]	–	–	microemulsion	true solution	better than free sugars
